Assay results from paper PMC3961337, “FRET-Based System for Probing Protein-Protein Interactions between σ^R and RsrA from Streptomyces Coelicolor in Response to the Redox Environment” (PLoS ONE, 2014).

B1: rsrA-cfp-pET28a (+) protein (RCP) (natural protein, S. coelicolor M145, UniProt Q7AKG8 1-105, looked up)
chain: MSCGEPHETDCSEILDHLYEFLDKEMPDSDCVKFEHHFEECSPCLEKYGLEQAVKKLVKRCCGQDDVPGDLRAKVMGRLDLIRSGQSVPEHDVAAAPSSSAPQES
notes: anti-sigma factor RsrA of Streptomyces coelicolor, amplified from the M145 genome with primers rsrAA and rsrAB; RsrA, then E-F (EcoRI site) and G-G-S, then CFP from M-V-S-K-G to M-D-E-L-Y-K (worked out from primers cfpA and cfpB), cloned NcoI/EcoRI/HindIII in pET28a (+); source: E. coli BL21 (DE3), purified (Ni-NTA); also co-expressed with SYP in E. coli BL21 (DE3) cells, unpurified; not shown: …
B2: RCP with the histidine tag removed by thrombin (zinc function assay) (natural protein, S. coelicolor M145, UniProt Q7AKG8 1-105, looked up)
chain: B1 chain
notes: anti-sigma factor RsrA of Streptomyces coelicolor, amplified from the M145 genome with primers rsrAA and rsrAB; Same construct as m4 after thrombin; Zinc removed with EDTA (apo-RCP); Zn-RCP is the same protein with 500 uM ZnSO4 added; also called apo-RCP; Zn-RCP; not shown: CFP (after a glycine-glycine-serine linker), C-terminal, kept; His tag, N-terminal, cleaved

Columns and labels:
Conditions in all cases: both partners purified
[1] = target: T1, sigR-yfp-pET28a (+) protein (SYP) (S. coelicolor M145, UniProt Q7AKG9 1-227, biotinylated for the biolayer interferometry only); test: FRET or BRET; FRET efficiency titration: increasing SYP (or YFP) from 0.1 nM to 0.85 μM added to a determined concentration of RCP in binding buffer with 2.5 mM DTT; single-site binding curve
T1 construct: ECF sigma factor σR (SigR) of Streptomyces coelicolor, amplified from the M145 genome with primers sigRC and sigRD; the primers encode M-G-T-G-T-D-A at the start (after the NcoI site) and K-G-S-G-S before the HindIII site (worked out from the primers); σR, then K-L (HindIII site) and G-G-S, then YFP from M-V-S-K-G to M-D-E-L-Y-K (worked out from primers yfpC and yfpD), cloned NcoI/HindIII/XhoI in …
T1 sequence (Q7AKG9 whole entry): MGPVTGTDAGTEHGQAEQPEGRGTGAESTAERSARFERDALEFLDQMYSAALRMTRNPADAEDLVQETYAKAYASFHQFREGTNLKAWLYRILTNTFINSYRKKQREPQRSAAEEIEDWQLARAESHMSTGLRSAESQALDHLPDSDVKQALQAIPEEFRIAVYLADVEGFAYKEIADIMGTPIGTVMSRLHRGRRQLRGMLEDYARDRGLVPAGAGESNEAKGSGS

[2] = target: T2, SYP with the histidine tag removed by thrombin (zinc function assay) (S. coelicolor M145, UniProt Q7AKG9 1-227); test: FRET or BRET; zinc function assay, Zn-sample (500 μM ZnSO4) after removal of DTT and addition of 1 mM diamide; FRET ratio emission 528 nm/478 nm
T2 construct: ECF sigma factor σR (SigR) of Streptomyces coelicolor, amplified from the M145 genome with primers sigRC and sigRD; the primers encode M-G-T-G-T-D-A at the start (after the NcoI site) and K-G-S-G-S before the HindIII site (worked out from the primers); Same construct as m3 after thrombin; not shown: YFP (after a glycine-glycine-serine linker), C-terminal, kept; His tag, N-terminal, cleaved
T2 sequence (Q7AKG9 whole entry): as above

[3] = target: T2, SYP with the histidine tag removed by …; test: FRET or BRET; zinc function assay, apo-sample: His tags removed by thrombin, zinc removed with 5 mM EDTA; SYP and RCP at the same concentration, no ZnSO4; FRET ratio emission 528 nm/478 nm
[4] = target: T2, SYP with the histidine tag removed by …; test: FRET or BRET; zinc function assay with ZnSO4: His tags removed by thrombin; increasing ZnSO4 added to the mixture (Fig. 4A) and 500 μM ZnSO4 for the spectra (Fig. 4B); FRET ratio emission 528 nm/478 nm

Binder | Kd [1] | FRET ratio (emission 528 nm/478 nm), Zn-sample with diamide [2] | FRET ratio (emission 528 nm/478 nm), no ZnSO4 added [3] | FRET ratio (emission 528 nm/478 nm), with 500 μM ZnSO4 [4]
B1 | 81 ± 29 nM |  |  | 
B2 |  | 2.2 | 2.3 | 2.8
